Experimental data published in paper PMC2651629, “Structure of the Archaeal Pab87 Peptidase Reveals a Novel Self-Compartmentalizing Protease Family” (PLoS ONE, 2009).

Columns and labels:
[1] = target: Pyrococcus abyssi Pab87 protein (Pyrococcus abyssi); assay: cryo-EM structure; 0.5 mg/mL Pab87 in 50 mM Tris-HCl pH 8.5, 350 mM NaCl; single-particle reconstruction at around 14 Å, fitted with the X-ray structure
[2] = target: Pyrococcus abyssi Pab87 protein (Pyrococcus abyssi); assay: AUC; sedimentation velocity, 20°C, 40,000 rpm, 10 µM protein in 150 mM Tris pH 8.5, 350 mM NaCl; c(s) and c(M) distributions (Sedfit)
[3] = target: Pyrococcus abyssi Pab87 protein (Pyrococcus abyssi); assay: crystal structure; Pab87 co-crystallised with Lu-HPDO3A (200 mM), 20 mM CaCl2, 30% MPD, 100 mM sodium acetate pH 4.6, 18°C; space group P1, eight molecules per asymmetric unit; 2.2 Å

stoichiometry N [1]: 8
stoichiometry N [2]: 8
stoichiometry N [3]: 8
Substance: Pyrococcus abyssi Pab87 protein (enzyme)
